Test results reported in publication PMC4421749.

Biological target: microtubules assembled from bovine brain tubulin (bovine) (UniProt Q6B856)
Assay: co-sedimentation; 0.5 μM 4R-tau with increasing taxol-stabilized microtubules, 30 min at RT, BRB80-K (BRB80 + 50 mM KCl); 230,000 x g 15 min; tau in the pellet by densitometry of Coomassie gels; hyperbolic fit; apparent Kd

Substance: 4R-tau (1N4R-tau), recombinant human tau containing four microtubule-binding sites (from UniProt P10636-7 1-412) (natural protein)
- Kd: 280 nM
